Data on 9 molecules can be found in patent US20210179715A1 (Genentech, published 2021).

Changes are numbered by the printed parent chain. Numbers in names are those of the source. Where “and” joins values, the source holds several entries; their conditions need not be identical. Equal entries are not always repeated. Where two headings read alike, the source gives them in different places.

Assay [1] addresses T1, human LY6G6D-Fc (human, UniProt O95868 20-104).
T1 construct: also called hu Ly6G6D; huLY6G6D; not shown: linker and Fc part
T1 sequence: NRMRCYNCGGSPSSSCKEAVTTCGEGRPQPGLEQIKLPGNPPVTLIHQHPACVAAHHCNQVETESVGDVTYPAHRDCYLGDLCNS
The assay can be described thus: BIAcore SPR; chimeric Fab; Ly6G6D-Fc captured on Protein A chip; 37 C. On the technique in general: In SPR one partner is held on a chip, and binding of the other changes the refractive index at the surface.

Assay [2] concerns the target T2, 27mer human CD3 polypeptide conjugated to biotin (human, conjugated to biotin (site not stated)).
T2 construct: The assay text says only '27mer human CD3 polypeptide'; also called HuCD3e pept biotin
T2 peptide: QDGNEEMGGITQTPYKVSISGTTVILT
In words: BIAcore T200 SPR; biotin 27mer CD3 peptide on SA chip; TDB flowed; 37 C. How it is done:
The MD1 and MD4 variants thus retained the high affinity of 38E4v1. Assays were performed using a BIAcore T200: 27mer human and cyno CD3 polypeptides were conjugated to biotin and were immobilized on a SA CM5 chip, and TDBs were flowed through at 100 μl/min at 37° C.

Assay [3] concerns the target T2, 27mer human CD3 polypeptide conjugated …. Described as above. How it is done: Assays were performed using a BIAcore T200. 27mer human and cyno CD3 polypeptides were conjugated to biotin and were immobilized on a SA CM5 chip. LY6G6D TDBs were flowed through at 37° C.
In assay [4] the target is T1, human LY6G6D-Fc. The assay can be described thus: BIAcore SPR; LY6G6D-Fc on chip; TDB flowed; 37 C. How it is done:
TDBs comprising the anti-LY6G6D arm 20Al2.QNTv12 and the anti-CD3 38E4.v1 (left panel; produced using a two-cell-manufacturing system), 38E4.v1 MD1 (center panel; produced using a one-cell-manufacturing system), or 38E4.v1 MD4 arm (right panel; produced using a one-cell-manufacturing system) were assayed for affinity for a human Ly6G6D polypeptide (FIG. 25) using a BIAcore assay.

Assay [5] addresses T1, human LY6G6D-Fc. The assay can be described thus: BIAcore SPR; LY6G6D-Fc on chip; Fab flowed; 37 C. How it is done: (§1) The humanized rb.20A12 variant 20A12.QNTv12, the humanized rb.6E10 variant 6E10.v114, and the anti-LY6G6D 1G4 arm were paired with the anti-CD3 38E4v1 or 40G5c arm as TDBs and tested for affinity to human and cynomolgus LY6G6D in a BIAcore® assay. Rabbit 20Al2, rabbit 6E10, and humanized 20A12.QNTv12 and 20A12.SNVv12 were additionally assayed for binding as antigen-binding fragments (Fabs). LY6G6D-Fc was directly immobilized on a chip, and TDBs were flowed through at 37° C., except for the rb6E10 Fab, which was assayed at 25° C.

Assay [6] deals with T1, human LY6G6D-Fc. In words: BIAcore SPR; LY6G6D-Fc on chip; TDB flowed; 37 C. The procedure: TDBs comprising the anti-LY6G6D 20A12.QNTv12 arm and the anti-CD3 38E4.v1 arm (FIG. 24A) or 40G5C arm (FIG. 24B) were assayed for affinity for a human and cyno Ly6G6D polypeptide using a BIAcore assay. Ly6G6D-Fc was directly immobilized on the chip, and the TDB was flowed through at 37° C. Similar assays were performed for TDBs comprising the anti-LY6G6D 1G4 arm and the anti-CD3 38E4.v1 arm (FIG. 24C) or 40G5C arm (FIG. 24D).
This is another data set of the same source.

Assay [7] concerns the target T3, polypeptide comprising amino acids 93-104 of LY6G6D (HRDCYLGDLCNS) (human).
T3 construct: also called LY6G6D peptide
T3 peptide: HRDCYLGDLCNS
In words: co-crystal structure, 2.2 A. The procedure: Ten 20A12.QNTv12 Fabs were tested.

Assay [8] addresses T1, human LY6G6D-Fc. In words: BIAcore SPR. How it is done: as §1
Assay [9] deals with T1, human LY6G6D-Fc. The assay can be described thus: BIAcore SPR; two-cell TDB.
The target of assay [10] is T4, human extracellular domain (ECD) of CD3 (human, UniProt P07766 23-126).
T4 construct: extracellular domain; also called huCD3
In words: BIAcore SPR; two-cell TDB.

Assay [11] addresses T5, cyno extracellular domain (ECD) of CD3 (cynomolgus monkey, UniProt Q95LI5 22-117).
T5 construct: extracellular domain; also called CyCD3
T5 sequence (looked up): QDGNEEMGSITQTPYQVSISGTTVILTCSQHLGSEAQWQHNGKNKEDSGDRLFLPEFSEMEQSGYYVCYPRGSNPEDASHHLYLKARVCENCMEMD
In words: BIAcore SPR; two-cell TDB.

For assay [12], the target named is T1, human LY6G6D-Fc. In words: BIAcore SPR; LY6G6D-Fc on chip; TDB flowed; 37 C. How it is done: as §1
This is another data set of the same source.

For the next assay, the target named is T6, LY6G6D on HT55 cells (human, UniProt O95868 20-104).
T6 sequence: T1 sequence
The assay can be described thus: cell-based or functional assay.

In assay [13] the target is T3, polypeptide comprising amino acids …. In words: co-crystal structure.

T4 sequence (P07766 23-126): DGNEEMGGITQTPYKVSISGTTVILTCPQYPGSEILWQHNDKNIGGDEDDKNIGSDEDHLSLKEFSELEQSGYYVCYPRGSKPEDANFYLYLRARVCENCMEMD

B1: rb20A12.IA (C35I-C50A) chimeric Fab (Fab, V domains shown)
VH: QQQLEESGGDLVKPGASLTLTCTASGFDFVNNAMIWVRQAPGKGLEWIAALSFADNTAYYATWASGRFTISKISSTTVTLRMTSLTGADTATYFCMRGDLWGPGTLVTVSS
VL: DIVMTQTPSSVSAAVGGTVTINCQASESITRYLNWYQQKPGQPPKLLIYDASKLPSGVPSRFKGSGSGTQFTLTTSDLECADAATYYCQSTSFRGRSYNNTFGGGTEVVVK
notes: also called rabbit 20A12 comprising C35I and C50A (IA) mutations
The Kd is the constant that tells how readily two partners part at equilibrium. A low value points to tighter binding. In the assay with human LY6G6D-Fc [1], B1 came in with a Kd of 0.86 nM. In other words, the sub-nanomolar range.

B2: LY6G6D TDB assembled using a one-cell system comprising the anti-LY6G6D 20A12.QNTv12 arm (one-cell) and the anti-CD3 38E4v1 MD4 arm (bispecific antibody, V domains shown)
VH 1: EVQLLESGGGLVQPGGSLRLSCAASGFDFVNNAMIWVREAPGKGLEWVSALSFADNTAYYATWASGRFTISRDSSKTTVYLQMNSLRAEDTAVYYCMRGDLWGPGTLVTVSS
VL 1: DIQMTQSPSTLSASVGDRVTITCQASESITRYLNWYQKKPGKAPKLLIYDASKLPSGVPSRFSGSGSGTEFTLTISSLQPDDFATYYCQSTSFRGRSYQNTFGGGTKVEIK
VH 2: EVQLVQSGAEVKKPGASVKVSCKASGFTFTSYYIHWVRKAPGQGLEWIGWIYPENDNTKYNEKFKDRVTITADTSTSTAYLELSSLRSEDTAVYYCARDGYSRYYFDYWGQGTLVTVSS
VL 2: DIVMTQSPDSLAVSLGERATINCKSSQSLLNSRTRKNYLAWYQEKPGQPPKLLIYWASTRKSGVPDRFSGSGSGTDFTLTISSLQAEDVAVYYCKQSFILRTFGQGTKVEIK
notes: also called 20A12.QNTv12.MD4/38E4v1; MD4 one-cell
One may read the koff as a measure of how fast the partners let go of each other. A lower koff goes with slow dissociation. In general, kon refers to a measure of how fast the partners come together. A lower kon goes with slow association. As to B2, the Kd in assay [2] was 18.8 nM and 18.6 nM; in assay [3] it was 18.7 nM; with human LY6G6D-Fc [4], 1.89 nM. In addition, the koff was 0.0544 s⁻¹ and 0.0495 s⁻¹ in assay [2]; 0.000559 s⁻¹ with human LY6G6D-Fc [4]. Moreover, the kon in assay [2] is 2.89e+06 M⁻¹ s⁻¹ and 2.66e+06 M⁻¹ s⁻¹; in the assay with human LY6G6D-Fc [4], 296000 M⁻¹ s⁻¹.

B3: LY6G6D TDB assembled using a one-cell system comprising the anti-LY6G6D 20A12.QNTv12 arm (one-cell) and the anti-CD3 38E4v1 (WT) arm (bispecific antibody, V domains shown)
VH 1: B2 VH 1
VL 1: B2 VL 1
VH 2: B2 VH 2
VL 2: B2 VL 2 with P49S, A57T
notes: also called WT one-cell; one-cell WT
Take B3: in assay [2], the Kd is 19.9 nM and 21.3 nM; the koff is 0.0516 s⁻¹ and 0.0498 s⁻¹; the kon was 2.59e+06 M⁻¹ s⁻¹ and 2.34e+06 M⁻¹ s⁻¹. The molecule further returned a Kd in assay [3] of 20.6 nM.

B4: hu20A12.SNVv12 Fab (Fab, V domains shown)
VH: B2 VH 1 with E39Q
VL: DIQMTQSPSTLSASVGDRVTITCQASESITRYLNWYQQKPGKAPKLLIYDASKLPSGVPSRFSGSGSGTEFTLTISSLQPDDFATYYCQSTSFRGRSYSNVFGGGTKVEIKR
In the assay with human LY6G6D-Fc [5], B4 displayed a Kd of 0.0195 nM, a koff of 4.26e-05 s⁻¹ and an on-rate constant (kon) of 2.18e+06 M⁻¹ s⁻¹.

B5: LY6G6D TDB comprising the anti-LY6G6D 1G4 arm and the anti-CD3 38E4.v1 arm (bispecific antibody, V domains shown)
VH 1: EVQLVQSGAEVKKPGASVKVSCKASGYTFTTYVMHWVRQAPGQGLEWMGYINPYNDGTKYNEKFKGRVTMTRDTSISTAYMELSRLRSDDTAVYYCGRRNFDYWGQGTLVTVSS
VL 1: DIVMTQSPDSLAVSLGERATINCKSSQSLLLSGNQENYLAWHQQKPGQPPKTLITWASTRISGVPDRFSGSGSGTDFTLTISSLQAEDVAVYYCQQSYSAPYTFGGGTKVEIK
VH 2: B2 VH 2 with K39Q
VL 2: B2 VL 2 with E44Q, P49S, A57T
notes: also called 1G4/38E4v1
In the assay with human LY6G6D-Fc [6], B5 came in with a Kd of 16.3 nM, a koff of 0.00886 s⁻¹ and a kon of 544000 M⁻¹ s⁻¹.

B6: hu20A12.QNTv12 Fab (Fab, V domains shown)
VH: B2 VH 1 with E39Q
VL: B4 VL with S99Q, V101T
For B6, in assay [7], the binding result was “binds”. In the assay with human LY6G6D-Fc [8], the Kd stood at 0.14 nM. In the assay with human LY6G6D-Fc [5], the Kd was found to be 0.136 nM, the koff worked out at 0.000227 s⁻¹ and the kon came to 1.67e+06 M⁻¹ s⁻¹.

B7: LY6G6D TDB comprising the anti-LY6G6D 20A12.QNTv12 arm (two-cell) and the anti-CD3 38E4v1 arm (bispecific antibody, V domains shown)
VH 1: B2 VH 1 with E39Q
VL 1: B2 VL 1 with K38Q
VH 2: B2 VH 2 with K39Q
VL 2: B2 VL 2 with E44Q, P49S, A57T
notes: Full-length IgG1 kappa; also called hu20A12.QNTv12/38E4v1 TDB; 20A12.QNTv12/38E4v1
Regarding B7, the Kd is 17.6 nM and 21.9 nM in [2]; 2.02 nM with human LY6G6D-Fc [9]; 20 nM in [10]; 15 nM in [11]; 19.8 nM in [3]; 2.02 nM in the assay with human LY6G6D-Fc [12]. The Kd with human LY6G6D-Fc [4] is 1.39 nM. The koff in assay [2] is 0.0429 s⁻¹ and 0.0486 s⁻¹; in the assay with human LY6G6D-Fc [12], 0.000444 s⁻¹; in the assay with human LY6G6D-Fc [4], 0.000416 s⁻¹. In addition, the kon is 2.44e+06 M⁻¹ s⁻¹ and 2.22e+06 M⁻¹ s⁻¹ in assay [2]; 220000 M⁻¹ s⁻¹ with human LY6G6D-Fc [12]; 299000 M⁻¹ s⁻¹ in the assay with human LY6G6D-Fc [4]. Besides, the “average CD8+T cell activation EC50” value with LY6G6D on HT55 cells was ~87 ng/ml and ~583 pM. For the same molecule, the “average cell killing EC50” value in the assay with LY6G6D on HT55 cells is ~1.04 ng/ml and ~7 pM.

B8: LY6G6D TDB assembled using a one-cell system comprising the anti-LY6G6D 20A12.QNTv12 arm (one-cell) and the anti-CD3 38E4v1 MD1 arm (bispecific antibody, V domains shown)
VH 1: B2 VH 1
VL 1: B2 VL 1
VH 2: B2 VH 2
VL 2: B2 VL 2 with K61E, K95T
notes: also called 20A12.QNTv12.MD1/38E4v1; MD1 one-cell
As for B8, in assay [2], the Kd is 32.8 nM and 32.4 nM; the koff was 0.0504 s⁻¹ and 0.0456 s⁻¹; the kon is 1.54e+06 M⁻¹ s⁻¹ and 1.41e+06 M⁻¹ s⁻¹. Further, binding in assay [3] was put at a Kd of 32.6 nM. In the assay with human LY6G6D-Fc [4], this molecule came in with a Kd of 1.9 nM, a koff of 0.000796 s⁻¹ and a kon of 420000 M⁻¹ s⁻¹.

B9: 1G4 Fab (Fab, V domains shown)
VH: B5 VH 1
VL: DIVMTQSPDSLAVSLGERATINCKSSQSLLLSGNQENYLAWHQQKPGQPPKTLITWASTRISGVPDRFSGSGSGTDFTLTISSLQAEDVAVYYCQQSYSAPYTFGGGTKVEIKR
notes: also called Fab of 1G4
Regarding B9, the binding result in assay [13] was “binds”.
